Test results published in patent US20180312591A1 (ONCOSYNERGY, published 2018).
Substitutions are numbered along the chain they refer to.

B1: composite human antibody variant H1 (antibody, V domains shown)
VH: EVQLVQSGAEVKKPGSSVKVSCKASGYTFTGYILSWVRQAPGQGLEWIGWVDPEYGSTDSAEKFKKRVTITADISTSTAYMELSSLRSEDTATYFCTRYYDGYYRRWFAYWGQGTLVTVSS
VL: DIQMTQSPSSLSASVGDRVTITCLASEGISNNLAWYQQKPGKAPKLLIYGAHSLHDGVPDRFSGSGSGTDYTLKISRVEAEDVGVYYCQQGYKYPITFGGGTKVEIK
notes: also called VH5VK3
B2: composite human antibody variant H19 (antibody, V domains shown)
VH: B1 VH with A9P, V20I, R38K, V68A, I70L, S77N, M81I, E82Q
VL: B1 VL with Y36H, K45Q, R77G, V78M, E79Q, A80P, V83E
notes: also called VH1VK1
B3: composite human antibody variant H13 (antibody, V domains shown)
VH: B1 VH with V20I, V68A, I70L, S77N, M81I
VL: B1 VL with Y71F
notes: also called VH2VK4
B4: composite human antibody variant H11 (antibody, V domains shown)
VH: B1 VH with V20I, V68A, I70L, M81I
VL: B1 VL
notes: also called VH3VK3
B5: composite human antibody variant H4 (antibody, V domains shown)
VH: B1 VH
VL: B1 VL with Y71F
notes: also called VH5VK4
B6: composite human antibody variant H10 (antibody, V domains shown)
VH: B1 VH with V20I, V68A, I70L, M81I
VL: B1 VL with Y71F
notes: also called VH3VK4
B7: composite human antibody variant H5 (antibody, V domains shown)
VH: B1 VH
VL: B1 VL with Y36H
notes: also called VH5VK2
B8: composite human antibody variant H15 (antibody, V domains shown)
VH: B1 VH with V20I, V68A, I70L, S77N, M81I
VL: B1 VL with Y36H
notes: also called VH2VK2
B9: composite human antibody variant H8 (antibody, V domains shown)
VH: B1 VH with V68A
VL: B1 VL with Y36H
notes: also called VH4VK2
B10: composite human antibody variant H6 (antibody, V domains shown)
VH: B1 VH
VL: B1 VL with Y36H, K45Q, R77G, V78M, E79Q, A80P, V83E
notes: also called VH5VK1
B11: composite human antibody variant H2 (antibody, V domains shown)
VH: B1 VH with V20I, V68A, I70L, M81I
VL: B1 VL with Y36H, K45Q, R77G, V78M, E79Q, A80P, V83E
notes: also called VH3VK1
B12: composite human antibody variant H3 (antibody, V domains shown)
VH: B1 VH with V68A
VL: B1 VL with Y71F
notes: also called VH4VK4

target: T1, human integrin β1 (human, UniProt P05556 21-798); test: competition FACS on Jurkat cells; competitor murine OS2966 (0.1875 µg/ml)
T1 construct: whole, on cells; the antibodies are described as anti-human integrin β1; also called CD29; ITGB1
Experimental: Binding of composite human antibody variants (from Table 2) was assessed in a competition FACS assay with the OS2966 murine chimeric antibody (murine OS2966 Fab sliced to human Fc). In brief, a dilution series (three-fold) of chimeric or humanized antibodies starting from 25.0 μg/ml was premixed with a constant concentration of murine OS2966 (0.1875 μg/ml) in FACS buffer (1% BSA in 1×PBS pH 7.4) before mixing with 3×10⁵ Jurkat cells. […] After incubating on ice for 45 min, cells were washed, resuspended in 300 μl FACS buffer and analyzed on a Beckton Dickinson FACScalibur™. The geometric mean fluorescence intensity was plotted against antibody concentration (FIGS. 20-24).

relative IC50 (IC50 of test antibody / IC50 of chimeric antibody) | Binder
0.88 ratio to chimeric antibody | B1
1.13 ratio to chimeric antibody | B2
2 ratio to chimeric antibody | B3
1.58 ratio to chimeric antibody | B4
3.26 ratio to chimeric antibody | B5
2.76 ratio to chimeric antibody | B6
0.85 ratio to chimeric antibody | B7
1.32 ratio to chimeric antibody | B8
1.18 ratio to chimeric antibody | B9
1.24 ratio to chimeric antibody | B10
0.97 ratio to chimeric antibody | B11
2.7 ratio to chimeric antibody | B12
